Laboratory results published in PMC3602593.

Target: DARPin H10-2-G3
Experiment: SPR; G3 DARPin amine-coupled (about 1,200 RU) on a GLC chip, ProteOn XPR36; HER2 constructs injected as analyte (One-Shot Kinetics, 30 uL/min, 120 s); 25°C; HBS-EBP+ (10 mM HEPES, 150 mM NaCl, 3 mM EDTA, 0.1% BSA, 0.05% Tween 20); global fit to a 1:1 model, KD = kd/ka

Row | Substance | Kd [µM] | koff [s⁻¹] | kon [M⁻¹ s⁻¹]
1 | human epidermal growth factor receptor 2 (HER2) extracellular domain, residues 1-623, wild type (from UniProt P04626 23-645) (domain or fragment) | 0.0033 | 0.00107 | 322000
2 | HER2 extracellular domain, residues 1-623, Leu 525→Ala (from UniProt P04626 23-645) (domain or fragment) | 0.265 | 0.0393 | 149000
3 | HER2 extracellular domain, residues 1-623, Val 552→Ala (from UniProt P04626 23-645) (domain or fragment) | 0.38 | 0.064 | 169000
4 | HER2 extracellular domain, residues 1-623, Ser 551→Ala (from UniProt P04626 23-645) (domain or fragment) | 0.0128 | 0.0035 | 285000
5 | HER2 extracellular domain, residues 1-623, Phe 555→Ala (from UniProt P04626 23-645) (domain or fragment) | 0.21 | 0.0384 | 184000
